A word on the EC50: it is the concentration that produces a half-maximal response. One may read the IC50 as the concentration at which inhibition is half-maximal. A lower IC50 goes with inhibition by little substance.

2 molecules from US20240343810A1 (published 2024) can be followed below.

For test [1], the target named is FcγRIIIa on effector cells (Jurkat NFAT luciferase v-variant effector cells, Promega) (human, UniProt P08637 17-254). Nature of the test: cell-based or functional assay.
Test [2] deals with T1, human PD-L1 expressed on cells (human, UniProt Q9NZQ7 19-290).
T1 construct: also called CHO-S cells transfected with the cDNA coding for human PD-L1; CHO human PD-L1
As to the kind of experiment: Flow cytometry on CHO human PD-L1 cells.

For test [3], the target named is T2, mouse ICOS-mFc (Chimerigen) (mouse, UniProt Q9WVS0 21-141, limits assumed).
T2 construct: Bought; also called recombinant mouse ICOS protein; mICOS; not shown: mouse Fc of the bought fusion
T2 sequence: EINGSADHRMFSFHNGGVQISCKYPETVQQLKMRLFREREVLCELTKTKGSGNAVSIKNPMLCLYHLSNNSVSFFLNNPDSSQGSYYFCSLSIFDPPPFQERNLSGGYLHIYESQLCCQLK
Nature of the test: DELFIA ELISA on coated mouse ICOS-mFc, N=1. How it is done:
Recombinant ICOS proteins, human ICOS-mFc or mouse ICOS-mFc (Chimerigen) were diluted in 1×PBS and added to Black Hi-bind plates (Griener) at 1 μg/ml, 50 μl/well. Recombinant PD-L1 proteins, human PD-L1-Flag-His or mouse-His were diluted in 1×PBS and added to Black Hi-bind plates (Griener) at 4 μg/ml, 50 μl/well. The plates were left overnight at 4° C. The next day plates were washed 3× with 300 μl/well of 1×PBS+0.1% Tween and blocked with 200 ul/well of 1×PBS+1% BSA blocking buffer for 1 hr at RT on a plate shaker. Plates were washed 3× with 300 μl/well of 1×PBS+0.1% Tween.
However, human-PD-L1 mAb² antibodies were diluted in 1×PBS+0.1% BSA buffer and diluted 1 in 2 from a starting working concentration of 0.066 μM over an 11 point titration. Titrated antibodies were added to the plates, 50 μl/well and left to incubate for 1 hr at R.T on a plate shaker. Plates were washed 3× with 300 μl/well of 1×PBS+0.1% Tween.
DELFIA® Eu-labelled Anti-human IgG (Perkin-Elmer) was diluted 1:500 in DELFIA Assay buffer (Perkin-Elmer) and added to the assay plate (50 μl/well), left to incubate for 1 hr at RT on a plate shaker. […] After incubation, assay was read on Envision plate reader (Perkin Elmer), Time-resolved fluorescence (TRF) was measured at 615 nm.
In general terms: In an ELISA, binding on a coated surface is turned into a signal by an enzyme label.

Test [4] addresses T2, mouse ICOS-mFc (Chimerigen). As to the kind of experiment: HTRF, mouse ICOS-mFc, competitor mouse B7-H2-Alexa 647, n2. How it is done: (§1) 5 μl of human ICOS-mFc (Chimerigen) at 20 nM (5 nM final) or 5 ul of mouse ICOS-mFc (Chimerigen) at 4 nM (1 nM final) were added to relevant assay wells. Plate was incubated for 1 hour (hr) at room temperature (RT).
(§2) After incubation, assay was read on Envision plate reader (Perkin Elmer) using a standard HTRF protocol. 620 nm and 665 nm channel values were exported to Microsoft Excel and % Delta-F and % Neutralisation calculations performed. Titration curves and IC50 values [M] were plotted using Graphpad (Prism). IC50 values were calculated by first transforming the data using equation X=Log(X). The transformed data was then fitted using nonlinear regression, using fitting algorithm, log (inhibitor) vs. response—variable slope (four parameters).
Background: In TR-FRET formats the signal depends on donor and acceptor labels being close together.

For test [5] the target is unchanged. As to the kind of experiment: HTRF, mouse ICOS-mFc, competitor mouse B7-H2-Alexa 647, n3. How it is done: as §1, §2
For test [6], the target named is T3, mouse PD-L1 expressed on CHO cells (mouse, UniProt Q9EP73 19-290).
T3 construct: also called CHO-S cells transfected with mPD-L1; CHO mouse PD-L1
Nature of the test: Flow cytometry on CHO mouse PD-L1 cells (sentence prints 'human PD-L1').

Test [7] addresses T4, human ICOS expressed on cells (human, UniProt Q9Y6W8 21-199).
T4 construct: also called CHO-S cells transfected with human ICOS; hICOS
T4 sequence: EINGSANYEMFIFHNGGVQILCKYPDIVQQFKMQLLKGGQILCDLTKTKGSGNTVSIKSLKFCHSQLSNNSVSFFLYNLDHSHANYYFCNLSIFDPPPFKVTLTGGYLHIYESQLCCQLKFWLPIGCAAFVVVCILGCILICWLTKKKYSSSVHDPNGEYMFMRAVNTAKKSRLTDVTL
Nature of the test: Flow cytometry on CHO-S human ICOS cells, anti-human IgG AF647, N=2. How it is done: CHO—S cells transfected with either human ICOS or mouse ICOS were resuspended in FACS buffer (PBS+1% w/v BSA+0.1% w/v sodium azide) and transferred to a 96-well V-bottom plate (Greiner) at a density of 1×10⁵ cells per well. mAb and mAb² were titrated in FACS buffer, 1 in 3 dilution across 11 points from a starting working concentration of 400 nM. Plates were centrifuged at 300×g for 3 minutes, supernatant discarded and 50 μL mAb or mAb² solution were added to cells and incubated at 4° C. for 1 hour. Cells were washed with 150 μL of PBS and centrifuged at 300×g for 3 minutes, supernatant was discarded and cell pellet resuspended in 150 μL PBS added. This wash step was repeated twice. Bound mAb or mAb² was detected by addition of 50 μL of anti-human 647 (Jackson ImmunoResearch) diluted to 3 ug/ml in FACS buffer. Cells were incubated for 1 hour at 4° C. in the dark. Cells were washed with 150 μL of PBS and centrifuged at 300 g for 3 minutes, supernatant was discarded and cell pellet resuspended in 150 μL PBS added. This wash step was repeated twice. Cells were fixed with 25 μL 4% v/v paraformaldehyde, incubated for 20 minutes at 4° C., cells were pelleted by centrifugation at 300×g and the supernatant discarded. […] AlexaFluor 647 signal intensity (geometric mean) was measured by flow cytometry using a Beckman Coulter CytoFLEX instrument.

Chain of FcγRIIIa on effector cells (Jurkat NFAT luciferase v-variant effector cells, Promega) (P08637 other isoform, or with tags, fused parts or gaps mutant limits assumed): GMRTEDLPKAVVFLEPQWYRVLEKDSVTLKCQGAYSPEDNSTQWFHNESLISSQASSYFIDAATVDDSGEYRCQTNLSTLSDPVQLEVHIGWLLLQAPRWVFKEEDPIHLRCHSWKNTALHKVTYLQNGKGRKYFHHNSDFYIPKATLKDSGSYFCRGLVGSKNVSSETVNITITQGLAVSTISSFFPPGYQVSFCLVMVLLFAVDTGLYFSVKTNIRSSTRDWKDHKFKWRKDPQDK
T3 sequence (Q9EP73 19-290 limits assumed): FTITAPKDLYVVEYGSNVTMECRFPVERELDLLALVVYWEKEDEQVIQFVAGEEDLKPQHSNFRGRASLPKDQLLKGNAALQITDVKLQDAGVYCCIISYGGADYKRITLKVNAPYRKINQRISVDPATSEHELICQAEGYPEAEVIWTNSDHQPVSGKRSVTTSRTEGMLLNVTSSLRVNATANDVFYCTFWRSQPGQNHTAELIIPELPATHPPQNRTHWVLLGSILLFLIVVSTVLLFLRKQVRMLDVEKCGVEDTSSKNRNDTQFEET
T1 sequence (Q9NZQ7 19-290 limits assumed): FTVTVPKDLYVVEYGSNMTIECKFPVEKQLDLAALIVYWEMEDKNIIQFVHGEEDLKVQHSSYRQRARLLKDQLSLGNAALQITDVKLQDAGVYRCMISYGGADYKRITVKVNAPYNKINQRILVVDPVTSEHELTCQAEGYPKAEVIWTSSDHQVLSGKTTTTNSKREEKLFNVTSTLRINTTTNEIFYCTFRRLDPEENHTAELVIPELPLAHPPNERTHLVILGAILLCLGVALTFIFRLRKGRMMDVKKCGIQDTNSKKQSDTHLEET

B1: STIM003 (antibody, human IgG1, kappa)
heavy: not shown
light: EIVLTQSPGTLSLSPGERATLSCRASQSVSRSYLAWYQQKRGQAPRLLIYGASSRATGIPDRFSGDGSGTDFTLSISRLEPEDFAVYYCHQYDMSPFTFGPGTKVDIKRTVAAPSVFIFPPSDEQLKSGTASVVCLLNNFYPREAKVQWKVDNALQSGNSQESVTEQDSKDSTYSLSSTLTLSKADYEKHKVYACEVTHQGLSSPVTKSFNRGEC
notes: Anti-ICOS monospecific antibody, tested as human IgG1; also called STIM003 monoclonal IgG1 antibody
Consider B1, for which, in test [1], the “EC50 of luciferase fold of induction, CHO human ICOS target cells, N=1” value is 0.326 nM; the “EC50 of luciferase fold of induction, CHO human ICOS target cells, N=2” value was 0.477 nM; the “EC50 of luciferase fold of induction, CHO human ICOS target cells, N=3” value came out at 0.24 nM; the “EC50 of luciferase fold of induction, CHO human ICOS target cells, mean” value was 0.347 nM. Besides, in test [1], the “EC50 of luciferase fold of induction, CHO mouse ICOS target cells, N=1” value amounted to 0.508 nM; the “EC50 of luciferase fold of induction, CHO mouse ICOS target cells, N=2” value was 0.754 nM; the “EC50 of luciferase fold of induction, CHO mouse ICOS target cells, N=3” value is 0.703 nM; the “EC50 of luciferase fold of induction, CHO mouse ICOS target cells, mean” value came out at 0.655 nM. The binding result in test [2] is on record as “no binding (tested: 198 nM)”. This molecule gave a concentration for a half-maximal effect (EC50) in test [3] of 0.416 nM. Also, in test [4], the IC50 is 0.14 nM. The molecule further returned a concentration for half-maximal inhibition (IC50) in test [5] of 0.11 nM. In test [6], the binding result is “no binding (tested: 22 nM)”. In test [7], the concentration for a half-maximal effect (EC50) worked out at 4.89 nM.

B2: STIM001 (antibody, human IgG1, kappa)
heavy: not shown
light: DIVMTQSPLSLPVTPGEPASISCRSSQSLLHSNEYNYLDWYLQKPGQSPQLLIFLGSNRASGVPDRFSGSGSGTDFTLKITRVEAEDVGIYYCMQSLQTPLTFGGGTKVEIKRTVAAPSVFIFPPSDEQLKSGTASVVCLLNNFYPREAKVQWKVDNALQSGNSQESVTEQDSKDSTYSLSSTLTLSKADYEKHKVYACEVTHQGLSSPVTKSFNRGEC
notes: Anti-ICOS monospecific antibody, tested as human IgG1; also called STIM001 monoclonal IgG1 antibody
With B2, in test [1], the “EC50 of luciferase fold of induction, CHO human ICOS target cells, N=1” value came to 0.456 nM; the “EC50 of luciferase fold of induction, CHO human ICOS target cells, N=2” value stood at 0.247 nM; the “EC50 of luciferase fold of induction, CHO human ICOS target cells, N=3” value worked out at 0.147 nM; the “EC50 of luciferase fold of induction, CHO human ICOS target cells, mean” value stood at 0.283 nM. In test [1], the “EC50 of luciferase fold of induction, CHO mouse ICOS target cells, N=1” value was 0.479 nM; the “EC50 of luciferase fold of induction, CHO mouse ICOS target cells, N=2” value was 0.534 nM; the “EC50 of luciferase fold of induction, CHO mouse ICOS target cells, N=3” value amounted to 0.579 nM; the “EC50 of luciferase fold of induction, CHO mouse ICOS target cells, mean” value came out at 0.53 nM. For the same molecule, the binding result in test [2] is “no binding (tested: 198 nM)”. In test [3], this molecule returned a concentration for a half-maximal effect (EC50) of 11.4 nM. In addition, in test [4], the IC50 was 8.91 nM. Besides, the IC50 in test [5] was determined as 9.25 nM. Also, the binding result in test [6] is given as “no binding (tested: 22 nM)”. The molecule also came in with an EC50 in test [7] of 13.8 nM.
